Data from article PMC11487272.

How the values were obtained:
[1] = molecular target: cFLIP^tDED_H7G (cFLIP tandem DED, residues 1-181, H7G) (UniProt O15519); assay: crystal structure
[2] = molecular target: wild-type cFLIP^tDED as used in the ternary co-purification (UniProt O15519); assay: cryo-EM structure

Row | stoichiometry N (molecules in the complex) [1] | stoichiometry N (molecules in the complex (Complex D)) [2] | stoichiometry N (molecules in the complex (Complex E)) [2] | stoichiometry N (molecules in the complex (Complex F)) [2] | stoichiometry N (molecules in the complex (Complex G)) [2] | Substance
1 | 6 | – | – | – | – | cFLIP^tDED_H7G (cFLIP tandem DED, residues 1-181, H7G) (from UniProt O15519 1-181) (domain or fragment)
2 | – | 5 | 6 | 8 | 4 | wild-type cFLIP^tDED as used in the ternary co-purification (from UniProt O15519 1-181) (domain or fragment)
